Assay results from paper PMC6009700.
Like-named read-outs stand apart in the source and are kept apart here.

Assays:
TubR [1] = target: T1, TubR (Clostridium botulinum prophage c-st, UniProt Q331T6 1-81); test: EMSA
T1 sequence: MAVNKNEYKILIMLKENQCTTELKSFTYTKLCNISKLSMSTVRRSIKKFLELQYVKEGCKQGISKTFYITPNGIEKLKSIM

TubR [2] = target: T1, TubR; test: fluorescence anisotropy
TubR [3] = target: T1, TubR; test: fluorescence anisotropy; remark: listed apart in the source
TubR [4] = target: T1, TubR; test: EMSA; remark: listed apart in the source

Binder | binding result (TubR [1]) | further results
Shuffle DNA (dsDNA) DNA 1: AATCGTAAAATATTACAATATAAGGTAACAAGATATTCCTTTTTGGAGCAT DNA 2: ATGCTCCAAAAAGGAATATCTTGTTACCTTATATTGTAATATTTTACGATT | no binding | –
SF1b (dsDNA) DNA 1: AAATAAACATGATATGAACATATATTGACTACAGTTTGACATAGTTTTGAC DNA 2: GTCAAAACTATGTCAAACTGTAGTCAATATATGTTCATATCATGTTTATTT | – | apparent K (half saturation) (TubR [2]): 184 ± 4.04 nM
SF3b (dsDNA) DNA 1: TGAACATATAGTGAACATAATACAACTAGTACAAGAATGTAGTTTGACTAT DNA 2: ATAGTCAAACTACATTCTTGTACTAGTTGTATTATGTTCACTATATGTTCA | – | apparent K (half saturation) (TubR [3]): 138 ± 7.7 nM
SF1 (dsDNA) DNA 1: TAAGGAATATAGTATAATATAGTAAAGAAAGAAATAAACATGATATGAACATATATTGACTACAGTTTGACATAGTTTTGACTATGATATGAACAAAATAAGAATGTATTATGAATATTTTCTTACATTACTGCGACTACTATCAG DNA 2: CTGATAGTAGTCGCAGTAATGTAAGAAAATATTCATAATACATTCTTATTTTGTTCATATCATAGTCAAAACTATGTCAAACTGTAGTCAATATATGTTCATATCATGTTTATTTCTTTCTTTACTATATTATACTATATTCCTTA | binds | –
SF2 (dsDNA) DNA 1: AGAATATACTTTGAATATAATTAGACTTAAACAAGATTACTTTTAGACTATAGTATAAATATAATTAGAAAATAATTTGAATAATTTATGAAAATAAGTACACATTTTCTAAGGAATATAGTATAATATAGTAAAGAAAGA DNA 2: TCTTTCTTTACTATATTATACTATATTCCTTAGAAAATGTGTACTTATTTTCATAAATTATTCAAATTATTTTCTAATTATATTTATACTATAGTCTAAAAGTAATCTTGTTTAAGTCTAATTATATTCAAAGTATATTCT | binds | –
SF3 (dsDNA) DNA 1: GTTAATTGTAGCGTTAAGTGAGACATAGAATTGAACATATAGTGAACATAATACAACTAGTACAAGAATGTAGTTTGACTATAATTTGAACATATTTAGAATATACTTTGAATATAATTAGACTTAAACAAG DNA 2: CTTGTTTAAGTCTAATTATATTCAAAGTATATTCTAAATATGTTCAAATTATAGTCAAACTACATTCTTGTACTAGTTGTATTATGTTCACTATATGTTCAATTCTATGTCTCACTTAACGCTACAATTAAC | binds | –
CP1 (dsDNA) DNA 1: TATAGTAAAGAAAGAAATAAACATGATATGAACATATATTGACTACAGTTTGACATAGTTTTGACTATGATATGAACAAAATAAGAATGTATTA DNA 2: TAATACATTCTTATTTTGTTCATATCATAGTCAAAACTATGTCAAACTGTAGTCAATATATGTTCATATCATGTTTATTTCTTTCTTTACTATA | – | binding result (TubR [4]): binds
